Experimental data as given in US20060153851A1.
“And” between values parts separate entries of the source, which are not always exact repeats. Equal values may be shown once.

Target: each PDZ domain-containing protein (GST-DLG1, GST-NeDLG, and GST-PSD95 fusion proteins of FIG. 9B)
Assay: 30 µM biotinylated peptide on plate-bound GST-PDZ fusions, streptavidin-HRP (FIG. 9B)

- OD units at 30 µM peptide: 0.4 OD units and 1 OD units
B1: biotinylated synthetic peptide corresponding to the C-terminal 20 amino acids of CLASP-2 (peptide)
peptide: VLHHHQNPEFYDEIKIELPTQLHEKHHLLLTFFHVSCDNSSKGSTKKRDVVETQVGYSWLPLLKDGRVVTSEQHIPVSANLPSGYLGYQELGMGRHYGPEIKWVDGGKPLLKISTHLVSTVYTQDQHLHNFFQYCQKTESGAQALGNELVKYLKSLHAMEGHVMIAFLPTILNQLFRVLTRATQEEVAVNVTRVIIHVVAQCHEEGLESHLRSYVKYAYKAEPYVASEYKTVHEELTKSMTTILKPSADFLTSNKLLRYSWFFFDVLIKSMAQHLIENSKVKLLRNQRFPASYHHAAETVVNMLMPHITQKFGDNPEASKNANHSLAVFIKRCFTFMDRGFVFKQINNYISCFAPGDPKTLFEYKFEFLRVVCNHEHYIPLNLPMPFGKGRIQRYQDLQLDYSLTDEFCRNHFLVGLLLREVGTALQEFREVRLIAISVLKNLLIKHSFDDRYASRSHQARIATLYLPLFGLLIENVQRINVRDVSPFPVNAGMTVKDESLALPAVNPLVTPQKGSTLDNSLHKDLLGAISGIASPYTTSTPNINSVRNADSRGSLISTDSGNSLPERNSEKSNSLDKHQQSSTLGNSVVRCDKLDQSEIKSLLMCFLYILKSMSDDALFTYWNKASTSELMDFFTISEVCLHQFQYMGKRYIARNQEGLGPIVHDRKSQTLPVSRNRTGMMHARLQQLGSLDNSLTFNHSYGHSDADVLHQSLLEANIATEVCLTALDTLSLFTLAFKNQLLADHGHNPLMKKVFDVYLCFLQKHQSETALKNVFTALRSLIYKFPSTFYEGRADMCAALCYEILKCCNSKLSSIRTEASQLLYFLMRNNFDYTGKKSFVRTHLQVIISVSQLIADVVGIGETRFQQSLSIINNCANSDRLIKHTSFSSDVKDLTKRIRTVLMATAQMKEHENDPEMLVDLQYSLAKSYASTPELRKTWLDSMARIHVKNGDLSEAAMCYVHVTALVAEYLTRKGVFRQGCTAFRVITPNIDEEASMMEDVGMQDVHFNEDVLMELLEQCADGLWKAERYELIADIYKLIIPIYEKRRDFFEDEDGKEYIYKEPKLTPLSEISQRLLKLYSDKFGSENVKMIQDSGKVNPKDLDSKYAYIQVTHVIPFFDEKELQERKTEFERSHNIRRFMFEMPFTQTGKRQGGVEEQCKRRTILTAIHCFPYVKKRIPVMYQHHTDLNPIEVAIDEMSKKVAELRQLCSSAEVDMIKLQLKLQGSVSVQVNAGPLAYARAFLDDTNTKRYPDNKVKLLKEVFRQFVEACGQALAVNERLIKEDQLEYQEEMKANYREMAKELSEIMHEQICPLEEKTSVLPNSLHIFNAISGTPTSTMVHGMTSSSSVV
modifications: biotin at the amino-terminus
